Assay [1] concerns the target the PHD and PHF7 (KD values in the range of 3–6 µM). Put plainly: MST.
For assay [2], the target named is UBE2D2∼Ub (ubiquitin-conjugated UBE2D2 S22R/C85K) (UniProt P62837). Nature of the assay: ITC.
Assay [3] has the same target. Put plainly: SEC.

PHF7 (mPHF7 28–307), sequence (Q9DAG9 28-307): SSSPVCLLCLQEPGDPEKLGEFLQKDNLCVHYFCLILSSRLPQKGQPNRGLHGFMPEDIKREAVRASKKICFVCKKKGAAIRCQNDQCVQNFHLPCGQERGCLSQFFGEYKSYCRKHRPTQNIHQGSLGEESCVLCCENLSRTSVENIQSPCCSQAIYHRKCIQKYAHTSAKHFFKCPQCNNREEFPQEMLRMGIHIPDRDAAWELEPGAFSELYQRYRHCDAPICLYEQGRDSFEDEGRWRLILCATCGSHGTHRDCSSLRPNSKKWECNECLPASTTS

As a reminder, the Kd is the concentration at which binding is half-saturated. “H3K4me2(1–44) (from UniProt P84233 2-45) (peptide)” came in with a Kd in assay [1] of 3 to 6 µM.
Take “PHF7 RING–PHD (150–307) C164A (from UniProt Q9DAG9 150-307) (domain or fragment)”: the fold lower affinity than PHF7 in assay [2] amounted to 7 fold.
The stoichiometry N is a count of units in the complex or per binding partner. In assay [2], “PHF7 (mPHF7 28–307) (from UniProt Q9DAG9 28-307) (domain or fragment)” registered a Kd of 0.4 µM and a fold stronger affinity than for UBE2D2 alone of 3 fold. The substance further registered a stoichiometry N in assay [3] of 1.

(Values after PMC10760634.)
